According to paper PMC11147762:

What was measured:
DDX41-ΔHel-WT (DDX41 D3) [1] = molecular target: T1, DDX41-ΔHel-WT (DDX41 D3) (Homo sapiens, UniProt Q9UJV9 1-406+568-622, internal_change); assay: EMSA; EMSA, 0-1300 nM protein with 10 nM nucleic acid; buffer, salt, pH and temperature not in material; details: protein: recombinant, label: 5'-Cy5 on oligo1
DDX41-R525H = DDX41-R525H (Homo sapiens, UniProt Q9UJV9 1-622, R525H); assay: as above; details: protein: recombinant; label: 5'-Cy5 on oligo1; 5'-Cy3 on RNA; bubble of oligo1/oligo2 with 25-nt RNA paired to oligo2
DDX41-ΔHel-Y259C = DDX41-ΔHel-Y259C (Homo sapiens, UniProt Q9UJV9 1-406+568-622, Y259C;internal_change); assay: as above; details: protein: recombinant; label: 5'-Cy5 on oligo1; 5'-Cy3 on RNA; bubble of oligo1/oligo2 with 25-nt RNA paired to oligo2
DDX41-ΔHel-WT (DDX41 D3) [2] = molecular target: T1, DDX41-ΔHel-WT (DDX41 D3); assay: EMSA; m6A had no effect on affinity; EMSA, 0-1300 nM protein with 10 nM nucleic acid; buffer, salt, pH and temperature not in material; details: protein: recombinant; label: 5'-Cy5 on oligo1; 5'-Cy3 on RNA; bubble of oligo1/oligo2 with 25-nt RNA paired to oligo2

T1 sequence (Q9UJV9 other isoform, or with tags, fused parts or gaps | mutant): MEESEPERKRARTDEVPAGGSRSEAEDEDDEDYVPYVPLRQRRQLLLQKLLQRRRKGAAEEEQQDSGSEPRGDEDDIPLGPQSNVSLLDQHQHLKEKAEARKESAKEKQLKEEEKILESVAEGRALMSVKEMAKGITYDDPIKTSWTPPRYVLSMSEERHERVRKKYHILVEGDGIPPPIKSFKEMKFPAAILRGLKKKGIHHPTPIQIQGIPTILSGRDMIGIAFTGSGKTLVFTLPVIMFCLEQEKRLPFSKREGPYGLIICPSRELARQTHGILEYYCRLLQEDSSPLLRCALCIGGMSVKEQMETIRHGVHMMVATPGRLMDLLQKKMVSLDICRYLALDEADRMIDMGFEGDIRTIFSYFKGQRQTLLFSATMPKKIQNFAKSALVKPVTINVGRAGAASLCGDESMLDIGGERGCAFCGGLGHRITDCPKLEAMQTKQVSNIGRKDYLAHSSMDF
DDX41-ΔHel-Y259C, sequence (Q9UJV9 other isoform, or with tags, fused parts or gaps Y259C/| Y259C Y259C): as the sequence (Q9UJV9 other isoform, or with tags, fused parts or gaps | mutant) above, with Y259C counted along it
DDX41-R525H, sequence (Q9UJV9 whole entry R525H): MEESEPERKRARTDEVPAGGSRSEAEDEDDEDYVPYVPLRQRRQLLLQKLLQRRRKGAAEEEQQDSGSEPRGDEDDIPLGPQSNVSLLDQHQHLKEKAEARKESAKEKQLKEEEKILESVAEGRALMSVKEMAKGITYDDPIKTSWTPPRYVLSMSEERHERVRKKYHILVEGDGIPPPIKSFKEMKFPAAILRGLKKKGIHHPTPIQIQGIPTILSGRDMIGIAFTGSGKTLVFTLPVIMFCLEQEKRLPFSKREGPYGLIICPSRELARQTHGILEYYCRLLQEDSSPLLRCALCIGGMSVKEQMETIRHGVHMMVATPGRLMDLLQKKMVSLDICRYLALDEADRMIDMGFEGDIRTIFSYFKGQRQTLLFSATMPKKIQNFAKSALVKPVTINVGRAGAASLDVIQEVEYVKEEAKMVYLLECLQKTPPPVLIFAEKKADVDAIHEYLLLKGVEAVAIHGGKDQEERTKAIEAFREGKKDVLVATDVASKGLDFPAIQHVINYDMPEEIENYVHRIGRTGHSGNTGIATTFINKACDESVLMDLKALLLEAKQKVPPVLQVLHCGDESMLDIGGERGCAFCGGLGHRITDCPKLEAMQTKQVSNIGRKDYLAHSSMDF

B1: R-loop (mixed)
DNA 1: GCCAGGGACGAGGTGAACCTGCAGGTGGGCGGCTACTACTTAGATGTCATCCGAGGCTTATTGGTAGAATTCGGCAGCGTCATGCGACGGC
DNA 2: GCCGTCGCATGACGCTGCCGAATTCTACCACGCGATTCATACCTGTCGTGCCAGCTGCTTTGCCCACCTGCAGGTTCACCTCGTCCCTGGC
RNA: GCAGCUGGCACGACAGGUAUGAAUC
B1: binds (DDX41-ΔHel-WT (DDX41 D3) [1]; 5'-Cy3 on RNA, bubble of oligo1/oligo2 with 25-nt RNA paired to oligo2); binds (DDX41-R525H); binds (DDX41-ΔHel-Y259C).

B2: D-loop (structured_DNA)
DNA 1: B1 DNA 1
DNA 2: B1 DNA 2
DNA 3: GCAGCTGGCACGACAGGTATGAATC
B2: binds (DDX41-ΔHel-WT (DDX41 D3) [1]; bubble with 25-nt DNA paired to oligo2).

B3: m6A R-loop (mixed)
DNA 1: B1 DNA 1
DNA 2: B1 DNA 2
RNA: GCAGCUGGCACGACAGGUAUGAAUC
modifications: m6A in RNA strand; positions not visible in material
B3: binds (DDX41-ΔHel-WT (DDX41 D3) [2]).
